Experiments:
SPAG9, O60271-2 [1] = target: SPAG9, O60271-2
SPAG9, O60271-2 [2] = target: SPAG9, O60271-2; remark: listed apart in the source

SPAG9, O60271-2, sequence (O60271 other isoform, or with tags, fused parts or gaps): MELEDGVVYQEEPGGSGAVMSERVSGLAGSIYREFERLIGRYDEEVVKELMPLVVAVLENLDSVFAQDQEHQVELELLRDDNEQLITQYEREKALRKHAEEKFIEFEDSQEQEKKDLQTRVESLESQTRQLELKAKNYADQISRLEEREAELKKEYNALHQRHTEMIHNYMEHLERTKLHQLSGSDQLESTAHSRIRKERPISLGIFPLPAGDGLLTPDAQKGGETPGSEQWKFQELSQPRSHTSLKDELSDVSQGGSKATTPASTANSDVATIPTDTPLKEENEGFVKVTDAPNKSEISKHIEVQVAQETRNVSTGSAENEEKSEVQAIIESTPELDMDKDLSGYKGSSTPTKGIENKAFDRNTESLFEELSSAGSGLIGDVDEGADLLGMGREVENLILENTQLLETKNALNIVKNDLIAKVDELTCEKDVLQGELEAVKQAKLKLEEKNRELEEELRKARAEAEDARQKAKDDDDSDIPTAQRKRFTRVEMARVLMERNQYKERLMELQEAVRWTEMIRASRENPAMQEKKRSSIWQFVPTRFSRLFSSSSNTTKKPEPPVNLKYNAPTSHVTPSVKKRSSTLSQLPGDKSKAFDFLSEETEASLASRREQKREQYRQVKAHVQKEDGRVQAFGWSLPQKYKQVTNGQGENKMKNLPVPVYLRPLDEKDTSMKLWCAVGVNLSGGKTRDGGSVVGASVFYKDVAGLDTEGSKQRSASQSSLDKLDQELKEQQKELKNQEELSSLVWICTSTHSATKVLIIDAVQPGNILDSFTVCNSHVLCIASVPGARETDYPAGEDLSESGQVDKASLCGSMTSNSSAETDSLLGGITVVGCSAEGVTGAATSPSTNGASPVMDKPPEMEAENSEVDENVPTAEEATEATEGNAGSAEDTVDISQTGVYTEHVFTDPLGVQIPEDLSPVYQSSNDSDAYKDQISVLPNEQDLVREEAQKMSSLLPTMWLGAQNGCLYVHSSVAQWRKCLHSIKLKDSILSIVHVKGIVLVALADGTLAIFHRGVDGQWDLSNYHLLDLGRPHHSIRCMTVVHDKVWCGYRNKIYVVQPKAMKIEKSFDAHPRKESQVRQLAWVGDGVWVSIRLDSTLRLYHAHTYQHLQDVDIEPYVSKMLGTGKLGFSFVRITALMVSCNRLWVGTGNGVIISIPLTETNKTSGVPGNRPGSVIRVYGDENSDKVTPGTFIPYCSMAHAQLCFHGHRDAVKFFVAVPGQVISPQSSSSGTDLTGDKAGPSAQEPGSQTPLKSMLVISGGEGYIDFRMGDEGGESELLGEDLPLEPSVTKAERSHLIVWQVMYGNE
ADP-ribosylation factor 1 (Homo sapiens), P84077 E57T, sequence (P84077 whole entry E57T): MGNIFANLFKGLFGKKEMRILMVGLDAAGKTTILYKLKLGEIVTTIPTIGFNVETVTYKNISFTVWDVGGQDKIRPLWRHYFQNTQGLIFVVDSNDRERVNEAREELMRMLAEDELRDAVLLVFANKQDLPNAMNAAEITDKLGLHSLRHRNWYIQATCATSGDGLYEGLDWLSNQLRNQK
ADP-ribosylation factor 1 (Homo sapiens), P84077 S62K, sequence (P84077 whole entry S62K): as the sequence (P84077 whole entry E57T) above, with T57E, S62K counted along it

| Substance | effect of a mutation on the interaction (SPAG9, O60271-2 [1]) | effect of a mutation on the interaction (SPAG9, O60271-2 [2]) |
| --- | --- | --- |
| ADP-ribosylation factor 1 (Homo sapiens), P84077 E57T | increasing interaction | – |
| ADP-ribosylation factor 1 (Homo sapiens), P84077 S62K | – | increasing interaction |
| ADP-ribosylation factor 1 (Homo sapiens), P84077 T64N | – | increasing interaction |
| ADP-ribosylation factor 1 (Homo sapiens), P84077 Q83T | increasing interaction | – |
